± gives the standard error. Fewer inactive variants are shown than the library holds.
B1: glmS ribozyme (parent)
chain: AUAAAAGCGCCAGAACUACAGAAAUGUAGUUGACGAGGAGGAGGUUUAUCGAAUUUUCGGCGGAUGCCUCCAAA

Key:
Conditions in all cases: with glucosamine-6-phosphate
glucosamine-6-phosphate [1] = variants of: B1; experiment: self-cleavage kobs at 640 uM GlcN6P; higher = faster cleavage; RNA array
Outline: (§1)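 The measurements used barcoded ribozyme variants on sequenced MiSeq chips, transcribed in situ by E. coli RNA polymerase and tracked at 37 °C with a hybridised Cy3 probe. Glucosamine-6-phosphate, 40 μM to 10 mM in HEPES/KCl/Mg(OAc)2 buffer, was flowed in while tiles were imaged over ~14 h. Baseline-normalised signals, also normalised to non-cleaving reference variants, gave per-tile medians that were fit to one- or two-exponential decays for kobs. kcat and KM resulted from weighted Michaelis–Menten fits across concentrations.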

glucosamine-6-phosphate [2] = variants of: B1; experiment: self-cleavage kobs at 2500 uM GlcN6P; higher = faster cleavage; RNA array
Outline: as §1

glucosamine-6-phosphate [3] = variants of: B1; experiment: self-cleavage kobs at 10000 uM GlcN6P; higher = faster cleavage; RNA array
Outline: as §1

Variant	self-cleavage kobs at 640 uM GlcN6P (glucosamine-6-phosphate [1]) [s⁻¹]	self-cleavage kobs at 2500 uM GlcN6P (glucosamine-6-phosphate [2]) [s⁻¹]	self-cleavage kobs at 10000 uM GlcN6P (glucosamine-6-phosphate [3]) [s⁻¹]
G29A G44U U65C	< 1e-05	< 1e-05	
A6G G7A G13U A15C C68A C70A	< 1e-05		
C11G U47G C50A C70G	0.000245 ± 6.2e-05	0.000139 ± 4e-05	7.52e-05 ± 1.9e-05
U31C G60U C67G	< 1e-05	< 1e-05	
G43U U47C G66U	< 1e-05		
A14C U56G U57A C71A	8.95e-05 ± 2.3e-05	5.04e-05 ± 2e-05	
G32C A36G G37U	< 1e-05		
C11G G13A C70G	0.000406 ± 0.00015	6.69e-05 ± 3.1e-05	
A6G U30A A39U G60U	< 1e-05	< 1e-05	
A6U C8U A15U G32C C34A C61G	< 1e-05		
U45G C50U C70U	< 1e-05		
G9U C10G A15G G38U A39G A52U	< 1e-05	< 1e-05	< 1e-05
A6U C11G A14C G41U	< 1e-05	< 1e-05	
U30A U55G C61U	< 1e-05		< 1e-05
C8A A36U U45C U57A	< 1e-05		
C8U G62A C70U	6.07e-05 ± 2.6e-05		
G32A G43A G63A A64G	< 1e-05	< 1e-05	
G29C G43U U57G	< 1e-05		
U46G C50U A53C A64U	< 1e-05	< 1e-05	
C11U A42C U54C G59A G60A	< 1e-05	< 1e-05	
G29A C34U G44C A53U C68U	< 1e-05		
A14C C58A C67A C68G	5.61e-05 ± 2.2e-05	4.77e-05 ± 1.6e-05	
A12C U47A C50A U55A C58U A64G	< 1e-05		

Variant	self-cleavage kobs at 640 uM GlcN6P (glucosamine-6-phosphate [1]) [s⁻¹]	self-cleavage kobs at 2500 uM GlcN6P (glucosamine-6-phosphate [2]) [s⁻¹]	self-cleavage kobs at 10000 uM GlcN6P (glucosamine-6-phosphate [3]) [s⁻¹]
A12C G40A U65A	9.15e-05 ± 1.3e-05	0.000293 ± 5.4e-05	
G9A A14C A36G G37C A39U	< 1e-05		
U46G A53C C67U	7.34e-05 ± 2.7e-05	0.000252 ± 8.5e-05	
G35C G40C G60C	< 1e-05		
G13A A15U G35U G40C	< 1e-05		
C8A A33U U55G	< 1e-05		< 1e-05
G9C A64U G66C C70U C71U	< 1e-05		
C11A U54A U55G G63U U65G	< 1e-05		
G7U U30C C61A	< 1e-05		
A39C G59C C68U	< 1e-05		
A12C U30G U45C C50A A52U	< 1e-05		
C8U A12U G37U C61A A64U C67G	0.000544 ± 0.00022		
C8A C11U G13A C71U	< 1e-05	< 1e-05	
G32A A36G A39C G41U G43U	< 1e-05		
A14C U65A C70U	0.000125 ± 3.2e-05		
A12G G66C C68A	6.5e-05 ± 2.5e-05		
C16U G60U C61G	< 1e-05		
G13C G43U C58G	< 1e-05	< 1e-05	< 1e-05
C16G U56C C58U	< 1e-05		
C10A A12C G66U	< 1e-05	< 1e-05	
C10U A52C G66A	< 1e-05	< 1e-05	
A14U A36U U69G	0.000169 ± 6.2e-05	0.000194 ± 5.8e-05	5.55e-05 ± 1.8e-05
U49A C50U C67A C68G C71A	5.04e-05 ± 1.8e-05		

Variant	self-cleavage kobs at 640 uM GlcN6P (glucosamine-6-phosphate [1]) [s⁻¹]	self-cleavage kobs at 2500 uM GlcN6P (glucosamine-6-phosphate [2]) [s⁻¹]	self-cleavage kobs at 10000 uM GlcN6P (glucosamine-6-phosphate [3]) [s⁻¹]
U47C U54G G60A	< 1e-05		
U31C G41A G63C C68A	< 1e-05		
C16G A48G U56G G59A	< 1e-05		
G13U G35U C50U G66C	< 1e-05		
C16G A39G C71A	0.000265 ± 9.1e-05	0.000286 ± 0.00013	
C50A C61G C68U	8.62e-05 ± 2.5e-05		
A6U G9C A52U C67A C70U	< 1e-05		
C11A A48U C70A	9.74e-05 ± 2.9e-05		
A39U G63C C71G	< 1e-05	< 1e-05	
U31G U45C A53G	0.000175 ± 3.2e-05	0.000528 ± 9.1e-05	
U31A C34U A42C A48U G62U	< 1e-05		
G37C A52C	< 1e-05	< 1e-05	< 1e-05
G7A G43U U49G G63C A64U	< 1e-05	< 1e-05	
C50U A53U C70G	5.27e-05 ± 2.4e-05		
U55G U56A C71G	8.05e-05 ± 1.8e-05		
C58U C67U C68U C71U	0.000646 ± 0.00029		
G37A G41A C70U	0.00119 ± 0.00026	0.00206 ± 0.00053	
G9U A42U A48C C50G G63C C67U	< 1e-05		
U49A G59U C71G	< 1e-05		
C34G A53C A64C	< 1e-05		
G13U U56C G62U	< 1e-05	< 1e-05	< 1e-05
A14C C16A G43U C68U	< 1e-05	< 1e-05	
A12C A52U C71U	4.93e-05 ± 1.4e-05	0.000116 ± 2.4e-05	

Variant	self-cleavage kobs at 640 uM GlcN6P (glucosamine-6-phosphate [1]) [s⁻¹]	self-cleavage kobs at 2500 uM GlcN6P (glucosamine-6-phosphate [2]) [s⁻¹]	self-cleavage kobs at 10000 uM GlcN6P (glucosamine-6-phosphate [3]) [s⁻¹]
G40U G43U G51C U65C	< 1e-05		
A14G G40U G41C	7.7e-05 ± 1.5e-05	0.00015 ± 3.4e-05	
C11A A12U A36C A48C G60U G62A	< 1e-05	< 1e-05	
C10U A52U C67A C68A U69G	8.14e-05 ± 3.2e-05		
A6G G9U A64G	< 1e-05		
G35C G37U U56G	< 1e-05		
G29U G32A G44A A64U	< 1e-05		
G21U G26U U65G G66U U69G	0.000207 ± 8.9e-05		
U30C A33G A52G	< 1e-05		
G41C U45C C50U	< 1e-05	< 1e-05	
U30A G38A C50A G66U	< 1e-05		
U30C G32U U47A	0.000115 ± 3.3e-05	0.000106 ± 3e-05	
A14G G29U G38C U56C	< 1e-05		
C10U A15G G37A G38C A53U	< 1e-05		
G40C U47C C68G	< 1e-05		
C10U G35U	< 1e-05	< 1e-05	< 1e-05
A12C U54C C71U	0.00422 ± 0.0017	0.0234 ± 0.0081	
U31A A36U A48U U69C	< 1e-05		
G62U U69G	3.47e-05 ± 1.3e-05	0.000214 ± 8.3e-05	
A14C A15G G37C U49C	< 1e-05		
A15C A48U U49G G62U	< 1e-05		
A33G G40U C58A C67A	< 1e-05	< 1e-05	
G29U A53C G62C	< 1e-05		

Variant	self-cleavage kobs at 640 uM GlcN6P (glucosamine-6-phosphate [1]) [s⁻¹]	self-cleavage kobs at 2500 uM GlcN6P (glucosamine-6-phosphate [2]) [s⁻¹]	self-cleavage kobs at 10000 uM GlcN6P (glucosamine-6-phosphate [3]) [s⁻¹]
A12C G32A A64G C71A	< 1e-05		
A15G C16A U30C	0.000332 ± 0.00012	0.00063 ± 0.00023	
A6C U31G G40U G43A C50G G60C	< 1e-05		< 1e-05
A15G A48U U54A	0.000159 ± 3.2e-05	0.000106 ± 4.2e-05	
G29U G32U C58U C67A	3.68e-05 ± 1.8e-05	8.93e-05 ± 2.6e-05	
A33C U47C U65G	< 1e-05	< 1e-05	
G7U C16A G37U U45G	< 1e-05		
G9U U46G C58G	< 1e-05	< 1e-05	
U30A U31A G66A	0.000765 ± 0.00037		
C50A G51U U55C	< 1e-05	< 1e-05	
A12U A42G C70G	0.000705 ± 0.00032	0.00109 ± 0.00041	
A12G C34G U47C	< 1e-05		
C8U G13U A14U	< 1e-05		
C11U A14G A39C	0.000206 ± 5.2e-05	0.000528 ± 0.00014	
A14U G41A U45A	6.25e-05 ± 2.9e-05	0.000195 ± 5.4e-05	
G32U G35C U46A C67G C68A	0.000467 ± 0.00023		
G40C G41C C68A	< 1e-05		
A12G A14U A42U U54A C70G	< 1e-05		
C8G G9U G51C	< 1e-05		
U45C A48U G60A	< 1e-05	< 1e-05	
A6C C16G G37C A39G U45G U47A	< 1e-05	< 1e-05	
G13U A14U A48U	< 1e-05	< 1e-05	
C8A A36G A42U A53G	< 1e-05	< 1e-05	

Variant	self-cleavage kobs at 640 uM GlcN6P (glucosamine-6-phosphate [1]) [s⁻¹]	self-cleavage kobs at 2500 uM GlcN6P (glucosamine-6-phosphate [2]) [s⁻¹]	self-cleavage kobs at 10000 uM GlcN6P (glucosamine-6-phosphate [3]) [s⁻¹]
A48U C58U A64C	< 1e-05	< 1e-05	
G13A A42C G51C C61A	< 1e-05	< 1e-05	
A6U G29U A52C	< 1e-05		
C8G C10A G38U A52G	< 1e-05	< 1e-05	
A6U G41A G44C C67G C70G	< 1e-05	< 1e-05	
A6G G41C A42C	< 1e-05	< 1e-05	
A6G G40A U54G C67A	< 1e-05	< 1e-05	
G43U C67G C70A	< 1e-05		
U47G G51A A52G U65G	< 1e-05	< 1e-05	
G35A U46G C61G	< 1e-05	< 1e-05	< 1e-05
A36U G44C C61U C71A	< 1e-05		
G7U U54A	< 1e-05	< 1e-05	< 1e-05
U46G A53U G63C C67G	< 1e-05		
G13C U56A C58G C71U	3.8e-05 ± 1.2e-05	6.28e-05 ± 1.9e-05	
A15U C34G G63A	< 1e-05		
A12G C58G C71U	9.42e-05 ± 1.7e-05	3.81e-05 ± 1.2e-05	
A14C G32A G40U G59C	< 1e-05		
C8U G66C C71G	< 1e-05		
A15G U47G U55G C70A	0.000102 ± 1.7e-05		
G38A G59C G62U	< 1e-05		
C8A A36C C68U	< 1e-05		
A36U A39U U45C C58U	< 1e-05	< 1e-05	

Reference: the supplement of paper PMC7125110
